How the values were obtained:
Test in all cases: MST; 100 nM fluorescently labelled (RED-NHS) BRD^Baz2B, peptide (H3 or H3K14ac) titrated; MST buffer 150 mM Tris-HCl, 50 mM NaCl, 10 mM MgCl2, pH 7.6, 0.0025% Pluronic, 200 ng/ul BSA; 25 C, 20% MST power; at least triplicate
Settings in all cases: both partners purified
[1] = biological target: T1, His6-BRD^Baz2B (bromodomain of human Baz2B, wild-type) (human, UniProt Q9UIF8 2054-2168, fluorescent label (Monolith NT Protein Labelling Kit RED-NHS))
T1 construct: bromodomain (BRD) of human Baz2B, from plasmid pNIC28-Bsa4-BAZ2B-BRD; also called BAZ2B-BRD; source: E. coli BL21(DE3)-R3-pRARE2, purified (Ni-NTA, Sephadex 75)
T1 sequence: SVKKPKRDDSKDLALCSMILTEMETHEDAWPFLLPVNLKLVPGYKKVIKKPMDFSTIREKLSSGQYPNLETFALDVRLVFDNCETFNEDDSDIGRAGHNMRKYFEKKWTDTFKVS

BRD^Baz2B D2143N = biological target: T2, BRD^Baz2B D2143N (human, UniProt Q9UIF8 2054-2168, D2143N, fluorescent label (Monolith NT Protein Labelling Kit RED-NHS))
T2 construct: bromodomain (BRD) of human Baz2B with a cancer-associated point mutation, made on pNIC28-Bsa4-BAZ2B-BRD; Same limits as m1; mutation found in breast invasive carcinoma; source: E. coli BL21(DE3)-R3-pRARE2, purified (Ni-NTA, Sephadex 75)
T2 sequence: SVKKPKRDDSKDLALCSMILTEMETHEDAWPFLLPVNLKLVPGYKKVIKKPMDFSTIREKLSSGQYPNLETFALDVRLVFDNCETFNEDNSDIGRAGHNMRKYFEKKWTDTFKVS

[2] = biological target: T1, His6-BRD^Baz2B (bromodomain of human …); remark: listed apart in the source
BRD^Baz2B L2073V = biological target: T3, BRD^Baz2B L2073V (human, UniProt Q9UIF8 2054-2168, L2073V, fluorescent label (Monolith NT Protein Labelling Kit RED-NHS))
T3 construct: bromodomain (BRD) of human Baz2B with a cancer-associated point mutation, made on pNIC28-Bsa4-BAZ2B-BRD; Same limits as m1; mutation found in pancreatic cancer (COSMIC/ICGC); source: E. coli BL21(DE3)-R3-pRARE2, purified (Ni-NTA, Sephadex 75)
T3 sequence: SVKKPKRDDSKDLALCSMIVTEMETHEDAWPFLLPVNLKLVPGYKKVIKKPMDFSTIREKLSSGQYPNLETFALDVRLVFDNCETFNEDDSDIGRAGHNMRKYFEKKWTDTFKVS

BRD^Baz2B T2138I = biological target: T4, BRD^Baz2B T2138I (human, UniProt Q9UIF8 2054-2168, T2138I, fluorescent label (Monolith NT Protein Labelling Kit RED-NHS))
T4 construct: bromodomain (BRD) of human Baz2B with a cancer-associated point mutation, made on pNIC28-Bsa4-BAZ2B-BRD; Same limits as m1; mutation found in multiple myeloma; source: E. coli BL21(DE3)-R3-pRARE2, purified (Ni-NTA, Sephadex 75)
T4 sequence: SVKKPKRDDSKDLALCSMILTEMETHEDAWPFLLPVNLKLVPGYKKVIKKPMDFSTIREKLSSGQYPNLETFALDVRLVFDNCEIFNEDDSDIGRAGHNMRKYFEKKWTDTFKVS

BRD^Baz2B K2098N = biological target: T5, BRD^Baz2B K2098N (human, UniProt Q9UIF8 2054-2168, K2098N, fluorescent label (Monolith NT Protein Labelling Kit RED-NHS))
T5 construct: bromodomain (BRD) of human Baz2B with a cancer-associated point mutation, made on pNIC28-Bsa4-BAZ2B-BRD; Same limits as m1; mutation found in multiple myeloma; source: E. coli BL21(DE3)-R3-pRARE2, purified (Ni-NTA, Sephadex 75)
T5 sequence: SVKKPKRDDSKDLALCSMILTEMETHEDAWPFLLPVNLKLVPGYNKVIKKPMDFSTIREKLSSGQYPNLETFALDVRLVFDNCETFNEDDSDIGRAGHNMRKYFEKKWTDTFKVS

BRD^Baz2B L2127V = biological target: T6, BRD^Baz2B L2127V (human, UniProt Q9UIF8 2054-2168, L2127V, fluorescent label (Monolith NT Protein Labelling Kit RED-NHS))
T6 construct: bromodomain (BRD) of human Baz2B with a cancer-associated point mutation, made on pNIC28-Bsa4-BAZ2B-BRD; Same limits as m1; mutation found in breast cancer; source: E. coli BL21(DE3)-R3-pRARE2, purified (Ni-NTA, Sephadex 75)
T6 sequence: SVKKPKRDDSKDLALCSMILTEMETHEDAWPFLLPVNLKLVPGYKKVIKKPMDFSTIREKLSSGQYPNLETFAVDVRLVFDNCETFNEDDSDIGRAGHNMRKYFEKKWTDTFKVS

BRD^Baz2B F2139C = biological target: T7, BRD^Baz2B F2139C (human, UniProt Q9UIF8 2054-2168, F2139C, fluorescent label (Monolith NT Protein Labelling Kit RED-NHS))
T7 construct: bromodomain (BRD) of human Baz2B with a cancer-associated point mutation, made on pNIC28-Bsa4-BAZ2B-BRD; Same limits as m1; mutation found in endometrial cancer; source: E. coli BL21(DE3)-R3-pRARE2, purified (Ni-NTA, Sephadex 75)
T7 sequence: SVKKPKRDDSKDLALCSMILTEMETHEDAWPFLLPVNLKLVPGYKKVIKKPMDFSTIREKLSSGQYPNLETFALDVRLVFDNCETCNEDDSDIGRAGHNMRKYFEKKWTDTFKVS

- Kd [1]: 288 µM
- Kd (BRD^Baz2B D2143N): 42 µM
- Kd [2]: > 288 µM
- Kd (BRD^Baz2B L2073V): 7 µM
- Kd (BRD^Baz2B T2138I): 211 µM
- Kd (BRD^Baz2B K2098N): 8 µM
- Kd (BRD^Baz2B L2127V): 1.7 µM
- Kd (BRD^Baz2B F2139C): > 798 µM
B1: H3 peptide (Ac-TARKSTGGKAPRKQL-NH2) (peptide)
peptide: Ac-TARKSTGGKAPRKQL-NH2
notes: N-terminal tail of histone H3, residues 6-20; also called unmodified H3 peptide; unmodified H3K14 tail peptide; source: synthetic peptide, bought: alta Bioscience

Source: PMC10783490, “Biochemical and cellular insights into the Baz2B protein, a non-catalytic subunit of the chromatin remodeling complex” (Nucleic Acids Research, 2023)
